Target: T1, MBP-TREM2 N79Q (MBP fused to TREM2 19-134) (human, UniProt Q9NZC2 19-134, N79Q)
T1 sequence (looked up): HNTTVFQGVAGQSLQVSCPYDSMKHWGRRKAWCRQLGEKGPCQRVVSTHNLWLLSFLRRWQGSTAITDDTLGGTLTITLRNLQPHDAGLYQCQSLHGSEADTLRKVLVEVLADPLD
Experiment: crystal structure

B1: Amyloid beta peptide (1-8) (peptide)
peptide: DAEFRHDS
B1: binds.

Reference: article doi:10.1101/2024.05.23.595586 (bioRxiv, 2024)
